The chains are these.
T1: 9-1-1 clamp (Ddc1–Mec3–Rad17) (S. cerevisiae, UniProt Q08949;Q02574;P48581)
T1 sequence 1: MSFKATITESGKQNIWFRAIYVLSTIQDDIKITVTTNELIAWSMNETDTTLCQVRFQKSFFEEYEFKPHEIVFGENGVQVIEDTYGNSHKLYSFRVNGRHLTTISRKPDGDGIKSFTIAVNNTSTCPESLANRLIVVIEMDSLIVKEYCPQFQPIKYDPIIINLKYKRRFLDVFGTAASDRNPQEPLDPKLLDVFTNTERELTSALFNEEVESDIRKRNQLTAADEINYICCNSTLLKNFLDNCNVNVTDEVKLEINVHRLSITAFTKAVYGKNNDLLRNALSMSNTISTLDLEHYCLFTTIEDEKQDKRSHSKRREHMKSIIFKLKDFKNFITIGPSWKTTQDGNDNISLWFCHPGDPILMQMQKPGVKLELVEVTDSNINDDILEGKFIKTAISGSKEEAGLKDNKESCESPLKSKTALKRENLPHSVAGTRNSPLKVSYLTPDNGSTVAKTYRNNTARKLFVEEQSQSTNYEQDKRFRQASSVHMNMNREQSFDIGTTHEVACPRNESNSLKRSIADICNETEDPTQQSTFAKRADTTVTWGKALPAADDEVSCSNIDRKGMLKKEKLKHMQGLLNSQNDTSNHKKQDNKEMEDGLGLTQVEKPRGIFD
T1 sequence 2: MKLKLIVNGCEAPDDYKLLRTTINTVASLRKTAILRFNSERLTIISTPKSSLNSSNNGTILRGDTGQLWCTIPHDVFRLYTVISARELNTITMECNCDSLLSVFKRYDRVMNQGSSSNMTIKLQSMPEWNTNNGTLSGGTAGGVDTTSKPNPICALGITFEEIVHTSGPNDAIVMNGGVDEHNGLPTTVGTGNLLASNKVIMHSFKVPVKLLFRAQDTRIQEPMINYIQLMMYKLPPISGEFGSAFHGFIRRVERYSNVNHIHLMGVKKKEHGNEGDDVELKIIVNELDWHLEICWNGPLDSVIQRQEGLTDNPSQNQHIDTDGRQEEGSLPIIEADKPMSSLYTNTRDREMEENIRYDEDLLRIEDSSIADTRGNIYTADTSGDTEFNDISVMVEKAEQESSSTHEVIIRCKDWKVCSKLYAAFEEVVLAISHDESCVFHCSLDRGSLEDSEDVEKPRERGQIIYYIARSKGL
T1 sequence 3: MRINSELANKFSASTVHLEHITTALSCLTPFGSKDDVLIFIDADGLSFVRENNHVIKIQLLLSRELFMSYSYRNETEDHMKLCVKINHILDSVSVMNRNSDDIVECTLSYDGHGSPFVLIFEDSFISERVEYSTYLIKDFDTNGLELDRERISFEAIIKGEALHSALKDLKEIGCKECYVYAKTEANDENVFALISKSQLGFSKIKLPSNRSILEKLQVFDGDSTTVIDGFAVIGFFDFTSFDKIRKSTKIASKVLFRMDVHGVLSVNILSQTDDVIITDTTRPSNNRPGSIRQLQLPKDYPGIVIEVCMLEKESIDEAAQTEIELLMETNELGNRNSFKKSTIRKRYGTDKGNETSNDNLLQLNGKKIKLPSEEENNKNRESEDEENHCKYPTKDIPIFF

T2: Rad17 (S. cerevisiae, UniProt P48581 1-401)
T2 sequence: T1 sequence 3

B1: Ddc1 (natural protein)
chain: T1 sequence 1
B2: Rad24 (natural protein)
chain: MDSTNLNKRPLLQYSLSSLGSQITKWSSSRPTSPVRKARSTENDFLSKQDTSSILPSINDDGGEQWYEKFKPNCLEQVAIHKRKLKDVQEALDAMFLPNAKHRILLLSGPSGCSKSTVIKELSKILVPKYRQNSNGTSFRSTPNEHKVTEFRGDCIVNDLPQMESFSEFLKGARYLVMSNLSLILIEDLPNVFHIDTRRRFQQLILQWLYSSEPLLPPLVICITECEIPENDNNYRKFGIDYTFSAETIMNKEILMHPRLKRIKFNPINSTLLKKHLKFICVQNMKMLKEKNKWNKRQEVIDYIAQETGDIRSAITTLQFWATSSGSLPISTRESTISYFHAIGKVIHGSHSTNNDNEMINNLFENSNNLLSKEDFKLGILENYNTFNKGEFSISDASSIVDCLSECDNMNGLPESNEYGLREVRKTFRNISKQGHNHGTVYFPREWKVRKLQNSFKVQAEDWLNVSLYKYNAVHSFRNITLEFGYYAPLIRKCQSYKKKYILYYLKNLPSGSSGPKQTMDKFSDIMKVENGIDVVDRIGGPIEALSVEDGLAPLMDNDSNNCDHLEDQKKERDRRLRMLIDQYERNVMMANDDLEDEETSFNDDPIVDSDSDNSNNIGNETFGRSDEDESLCEILSQRQPRKAPVISESLSDSDLEIL
B3: Rfc3 (natural protein)
chain: MSTSTEKRSKENLPWVEKYRPETLDEVYGQNEVITTVRKFVDEGKLPHLLFYGPPGTGKTSTIVALAREIYGKNYSNMVLELNASDDRGIDVVRNQIKDFASTRQIFSKGFKLIILDEADAMTNAAQNALRRVIERYTKNTRFCVLANYAHKLTPALLSRCTRFRFQPLPQEAIERRIANVLVHEKLKLSPNAEKALIELSNGDMRRVLNVLQSCKATLDNPDEDEISDDVIYECCGAPRPSDLKAVLKSILEDDWGTAHYTLNKVRSAKGLALIDLIEGIVKILEDYELQNEETRVHLLTKLADIEYSISKGGNDQIQGSAVIGAIKASFENETVKANV
B4: His-PK-Mec3 (natural protein)
chain: T1 sequence 2
B5: Rfc2 (natural protein)
chain: MFEGFGPNKKRKISKLAAEQSLAQQPWVEKYRPKNLDEVTAQDHAVTVLKKTLKSANLPHMLFYGPPGTGKTSTILALTKELYGPDLMKSRILELNASDERGISIVREKVKNFARLTVSKPSKHDLENYPCPPYKIIILDEADSMTADAQSALRRTMETYSGVTRFCLICNYVTRIIDPLASRCSKFRFKALDASNAIDRLRFISEQENVKCDDGVLERILDISAGDLRRGITLLQSASKGAQYLGDGKNITSTQVEELAGVVPHDILIEIVEKVKSGDFDEIKKYVNTFMKSGWSAASVVNQLHEYYITNDNFDTNFKNQISWLLFTTDSRLNNGTNEHIQLLNLLVKISQL
B6: Rfc4 (natural protein)
chain: MSKTLSLQLPWVEKYRPQVLSDIVGNKETIDRLQQIAKDGNMPHMIISGMPGIGKTTSVHCLAHELLGRSYADGVLELNASDDRGIDVVRNQIKHFAQKKLHLPPGKHKIVILDEADSMTAGAQQALRRTMELYSNSTRFAFACNQSNKIIEPLQSRCAILRYSKLSDEDVLKRLLQIIKLEDVKYTNDGLEAIIFTAEGDMRQAINNLQSTVAGHGLVNADNVFKIVDSPHPLIVKKMLLASNLEDSIQILRTDLWKKGYSSIDIVTTSFRVTKNLAQVKESVRLEMIKEIGLTHMRILEGVGTYLQLASMLAKIHKLNNKA
B7: Rfc5 (natural protein)
chain: MSLWVDKYRPKSLNALSHNEELTNFLKSLSDQPRDLPHLLLYGPNGTGKKTRCMALLESIFGPGVYRLKIDVRQFVTASNRKLELNVVSSPYHLEITPSDMGNNDRIVIQELLKEVAQMEQVDFQDSKDGLAHRYKCVIINEANSLTKDAQAALRRTMEKYSKNIRLIMVCDSMSPIIAPIKSRCLLIRCPAPSDSEISTILSDVVTNERIQLETKDILKRIAQASNGNLRVSLLMLESMALNNELALKSSSPIIKPDWIIVIHKLTRKIVKERSVNSLIECRAVLYDLLAHCIPANIILKELTFSLLDVETLNTTNKSSIIEYSSVFDERLSLGNKAIFHLEGFIAKVMCCLD

What all share (experiment): cryo-EM structure
Assay [1] deals with B2.
Assay [2] addresses T1, 9-1-1 clamp (Ddc1–Mec3–Rad17).
Assay [3] addresses T2, Rad17.
The target in assay [4] is B1.

Consider 7 molecules from doi:10.1101/2021.10.01.462756 (bioRxiv, 2021).

For the molecule B1, the binding result in assay [1] was “binds”.

B2: the binding result in assay [2] is “binds”.

Regarding B3, the binding result in assay [3] was “binds”.

Take B4: in assay [4], the binding result is “binds”.

On to B5, for which, in assay [4], the binding result is on record as “binds”.

B6: the binding result in assay [3] and in assay [1] was “binds” throughout.

As for B7, the binding result in assay [2] and in assay [1] was “binds” throughout.
